Test results from patent US20200230057A1, “Pharmaceutical Compositions, Methods for Preparation using Lipid Vesicle Particles of Defined Size, and Uses Thereof” (IMMUNOVACCINE TECHNOLOGIES INC., priority 2017, published 2020).

Assay: HPLC peptide recovery before and after freeze-drying
Conditions: set specification 0.40-0.60 mg/mL for neoantigens, 0.2-0.3 mg/mL for A16L
Protocol: The composition prepared as described in Example 4, containing 14 neoantigens and the A16L T-helper peptide, was subjected to HPLC analysis to evaluate the peptide stability before and after freeze-drying.
Experimental Conditions: • IPQC Solutions: Dilute the IPQC solutions with Methanol and then with Mobile Phase A, e.g. as follows: • 100 mg In-Process Testing Solution • +450 μL Methanol, mix • +450 μL Mobile Phase A, mix • Mix by vortexing. Samples containing lipids will be slightly hazy. Dilution factor=10×. • Lyophilisates (for Release and Stability Testing): Solubilize the lyophilisate with Ultrapure lab water. Add 3-4 glass beads and vortex vigorously for 1 minute to assure complete homogenization. Dilute the solution with Methanol and subsequently with Mobile Phase A, e.g. as follows: • 100 mg In-Process Testing Solution • +450 μL Methanol, mix • +450 μL Mobile Phase A, mix • Mix by vortexing. The sample preparations will be slightly hazy. Dilution factor=20×.
The dried preparations were solubilized in water for HPLC analysis. T=0 is the day in which the samples were removed from the freeze-dryer. T=1M and T=3M are 1 month and 3 months after T=0, respectively, with the dried preparation having been stored at −20° C.

| Sequence | Peptide concentration relative to set specification |
| --- | --- |
| CGTAFFINFIAIYHHASRAIPFGTMVA (Mut36) [Mut 36] | consistently outside the set specification |
| IPSGTTILNCFHDVLSGKLSGGSPGVP (Mut29A) [Mut 29a] | outside the set specification |
| VVDRNPQFLDPVLAYLMKGLCEKPLAS (Mut17) [Mut 17] | outside the set specification |
